The record followed here is patent US20150125421A1.

What all share (experiment): cell-based or functional assay
Assay [1] concerns the target rat MHC class II RT1B (I-A) glycoproteins (rat).
The target in assay [2] is rat IL-4 receptor on cells (rat).
For assay [3], the target named is rat IL-2 receptor on cells (rat).

In the case of OX6 anti-I-A (RT1B) IgG1 mAb (antibody), in assay [1], the [3H]thymidine incorporation of RsL.11 T cells with 100 nM cytokine/NAg in the presence of OX6 is < 10000 cpm; the [3H]thymidine incorporation of RsL.11 T cells with 100 fM-10 nM cytokine/NAg in the presence of OX6 is < 1000 cpm; the inhibition of the antigenic reactivity of IL4.4 (RsL.11 proliferation, irradiated splenic APC) (orders of magnitude) was > 5; the inhibition of the response to GPMBP (RsL.11 proliferation, irradiated splenic APC) was 100 fold.

B1: IL4.4 (rat IL4/EK/GP73-87/6his fusion protein) (protein)
chain: CNDSPLREIINTLNQVTEKGTPCTEMFVPDVLTATRNTTENELICRASRVLRKFYFPRDVPPCLKNKSGVLGELRKLCRGVSGLNSLRSCTVNESTLTTLKDFLESLKSILRGKYLQSCTSMSGDDDDKGPQKSQRSQDENPVVHHHHHHH
Turning to B1, in assay [2], the antigenic potency against GPMBP added with saturating IL-4 as a separate molecule came to 100 fold; the antigenic potency against GPMBP, by antigen concentrations eliciting a half maximal response (RsL.11 proliferation, irradiated splenic APC) was > 100 fold; the inhibition by soluble IL-4 of the RsL.11 proliferative response to IL4.4 (irradiated splenic APC) stood at 10 fold.

B2: IL2Ekdel (rat IL2/GP73-87/6his fusion protein) (protein)
chain: APTSSPAKETQQHLEQLLLDLQVLLRGIDNYKNLKLPMMLTFKFYLPKQATELKHLQCLENELGALQRVLDLTQSKSFHLEDAGNFISNIRVTVVKLKGSENKFECQFDDEPATVVEFLRRWIAICQSIISTMTQPQKSQRSQDENPVVHHHHHHH
Regarding B2, in assay [3], the lowest concentration fully active in MHCII-dependent T cell-mediated killing assay was 100 fM and the potency against GPMBP or DHFR-NAg in MHCII-dependent T cell-mediated killing assay (R1-trans T-APC) (orders of magnitude) was > 5.

B3: IL4Ekdel (rat IL4/GP73-87/6his fusion protein) (protein)
chain: CNDSPLREIINTLNQVTEKGTPCTEMFVPDVLTATRNTTENELICRASRVLRKFYFPRDVPPCLKNKSGVLGELRKLCRGVSGLNSLRSCTVNESTLTTLKDFLESLKSILRGKYLQSCTSMSPQKSQRSQDENPVVHHHHHHH
With B3, in assay [2], the antigenic potency against GPMBP (RsL.11 proliferation, irradiated splenic APC) was > 1000 times and the potency against GPMBP in MHCII-dependent T cell-mediated killing assay (R1-trans T-APC) turned out to be 1000 times.

B4: IL2.7 (rat IL2/EK/GP73-87/6his fusion protein) (protein)
chain: APTSSPAKETQQHLEQLLLDLQVLLRGIDNYKNLKLPMMLTFKFYLPKQATELKHLQCLENELGALQRVLDLTQSKSFHLEDAGNFISNIRVTVVKLKGSENKFECQFDDEPATVVEFLRRWIAICQSIISTMTQGDDDDKGPQKSQRSQDENPVVHHHHHHH
With B4, in assay [3], the antigenic potency against GPMBP added with saturating IL-2 as a separate molecule is 100 fold; the inhibition by soluble IL-2 of the RsL.11 proliferative response to IL2.7 (irradiated splenic APC) came out at 10 fold; the potency against GPMBP in T cell-mediated cytotoxic assay (R1-trans T-APC, irradiated RsL.11), IL-2 added 24 hours after initiation of culture was 1000 times; the potency against GPMBP in T cell-mediated cytotoxic assay (R1-trans T-APC, irradiated RsL.11), IL-2 added at the initiation of culture worked out at 32 fold.
